Assay results: US20230242902A1, “A HIGHLY ERROR-PRONE […] R[…] FOR TARGETED CONTINUOUS EVOLUTION IN VIVO” (The Regents of the University of California, priority 2017, published 2023)
Substitutions are numbered along the chain they refer to. Names and notes keep the numbering of the source.

B1: L640A, M779L (protein)
chain: MDYKDKALNDLRNVYADFDSLPLDFRQILIKDRATLLQKEDVEKKILERQEDAKKYAEYLKQSEIPERISLPNIKRHKGVSISFEETSEDMVLEPRPFIFDGLNIRCFRRETIFSLKNKILNMVKESSSFKNVSRQSVSFMYFKIFNKGKVIASTKSVNIYEDKIDERLEDLCNNFDDVLKKIIDVTYGYESLFVSETYSYVIFYAKSIYFPQPRCVNNWGNNIPNILTFDSFKLFTANKNNVSCIKQCSRFLWQKDFNTLEEMIEYKNGNICIVTPQLHINDVRDIKSFNDIRLYSESPIKTFSVIDNTITYLFYFKEHLGVIFNITKSRHDRRVTKFSPLSKFSDVKNITVCFDIESYFDPEKESNQVNIPFICCASIIYNKVIGNIVDFEGRDCVAQMIEYVVDICGELNISSVELIAHNGGGYDFHYILSSMYNPAAIKNILIRNNSFISFNFAHDGVKFSVKDSYSFLLCSLANASKAFLNEETFKKTDFPHHDLKTADDLYKVYKEWSSVNTEINHVVEKEKLLITSEHIVNFTKNDKSKTLIEWSKDYCRNDVLVLSKVWLEFKNAVEDIFNCELVDQTMTLAGLSYKLFQANMPFDVELRHPNKEDYFNMREALIGGRCISVNGIYKDVLCADVKSLYPASMAFYDQPYGSFKRVSSRPKDELGIYYVRVTPNRNNKSNFFPIRSHNKITYNNFEESTYIAWYTNVDIDIGLSEGHNIEYIPFDSYGNIGYSWSKKGKIFEKYIKDVLYKLKIKYEKQNNKVKRNVIKIILNSLWGKFAQKWVNFEYFIKSEDDIDFESEEAYKIWDTDFMLIKKIKESTYSSKPIQNGVFTLSWARYHMKSIWDAGAKEGAECIYSDTDSIFVHKEHFKKNAKFMLNGLKVPIIGSEVGQLELECEFDKLLCAGKKQYMGFYTYFQDGKPCIKEKKRFKGIPSNYIIPELYAHLLSGADKEAKIQFLKFRREWGSVKGYIENKTVKAT
B2: L640N, I777A (protein)
chain: B1 chain with A640N, I777A, L779M
B3: L640G, I775A (protein)
chain: B1 chain with A640G, I775A, L779M
B4: L645M, M779L (protein)
chain: B1 chain with A640L, L645M
B5: L640G, I777K, W814N (protein)
chain: B1 chain with A640G, I777K, L779M, W814N
B6: L645M, I777K (protein)
chain: B1 chain with A640L, L645M, I777K, L779M
B7: L640Y, I777A (protein)
chain: B1 chain with A640Y, I777A, L779M
B8: L640G, I777A (protein)
chain: B1 chain with A640G, I777A, L779M
B9: G410M: TP-DNAP1 variant (protein)
chain: B1 chain with G410M, A640L, L779M
B10: I287M: TP-DNAP1 variant (protein, listed as Kluyveromyces lactis)
chain: B1 chain with I287M, A640L, L779M
B11: D407T: TP-DNAP1 variant (protein)
chain: B1 chain with D407T, A640L, L779M
B12: D407C: TP-DNAP1 variant (protein)
chain: B1 chain with D407C, A640L, L779M
B13: G410Q: TP-DNAP1 variant (protein)
chain: B1 chain with G410Q, A640L, L779M
B14: G410R: TP-DNAP1 variant (protein)
chain: B1 chain with G410R, A640L, L779M
B15: D407F: TP-DNAP1 variant (protein)
chain: B1 chain with D407F, A640L, L779M
B16: D407M: TP-DNAP1 variant (protein)
chain: B1 chain with D407M, A640L, L779M
B17: V385W: TP-DNAP1 variant (protein)
chain: B1 chain with V385W, A640L, L779M
B18: G410L: TP-DNAP1 variant (protein)
chain: B1 chain with G410L, A640L, L779M
B19: D407H: TP-DNAP1 variant (protein)
chain: B1 chain with D407H, A640L, L779M
B20: V406Q: TP-DNAP1 variant (protein)
chain: B1 chain with V406Q, A640L, L779M
B21: R395P: TP-DNAP1 variant (protein)
chain: B1 chain with R395P, A640L, L779M
B22: D407V, S415T: TP-DNAP1 variant (protein)
chain: B1 chain with D407V, S415T, A640L, L779M
B23: G410H: TP-DNAP1 variant (protein, listed as Kluyveromyces lactis)
chain: B1 chain with G410H, A640L, L779M
B24: G410I: TP-DNAP1 variant (protein)
chain: B1 chain with G410I, A640L, L779M
B25: D407G: TP-DNAP1 variant (protein)
chain: B1 chain with D407G, A640L, L779M
B26: D407A: TP-DNAP1 variant (protein)
chain: B1 chain with D407A, A640L, L779M
B27: G387H: TP-DNAP1 variant (protein)
chain: B1 chain with G387H, A640L, L779M
B28: S289K: TP-DNAP1 variant (protein, listed as Kluyveromyces lactis)
chain: B1 chain with S289K, A640L, L779M
B29: V406C: TP-DNAP1 variant (protein)
chain: B1 chain with V406C, A640L, L779M
B30: G410E: TP-DNAP1 variant (protein)
chain: B1 chain with G410E, A640L, L779M
B31: G410K: TP-DNAP1 variant (protein)
chain: B1 chain with G410K, A640L, L779M

tested on: p1-encoded leu2 (Q180*); test: Large-scale p1 fluctuation tests of p1-encoded leu2 (Q180*), per-base substitution rate; format: cell-based, S. cerevisiae; conditions: per-base substitution rate, p1-encoded leu2 (Q180*), large-scale fluctuation test
From the text: All three TP-DNAP1 libraries were screened through small scale p1 fluctuation tests in a metastable S. cerevisiae strain, OR-Y24. OR-Y24 contains w.t. p1 and recombinant p1 that lacks w.t. TP-DNAP1, and instead, encodes a standardized fluorescence reporter of p1 copy number (Table 1), and a disabled version of the LEU2 selection marker (leu2 (Q180*)). As described previously (Ravikumar et al., 2014), leu2 (Q180*) contains a C→T mutation at base 538 in LEU2 at a site permissive to all single point mutants that generate missense mutations. Reversion to functional LEU2 can be detected on medium lacking leucine.
Large-scale fluctuation tests of p1-encoded leu2 (Q180*) were performed to precisely determine per-base substitution rates for individually cloned or isolated TP-DNAP1 variants. Large-scale p1 fluctuation tests are performed similarly to small-scale p1 fluctuation tests, with several modifications. First, large-scale p1 fluctuation tests were typically performed with 36-48 replicates. For highly error-prone TP-DNAP1s obtained from later rounds of screening, fewer replicates (3-16) were used, which is sufficient for similar precision (Foster et al., 2006). Second, p1 copy number was determined by the flow cytometry method, described below. Third, cell titers were measured for each fluctuation test to estimate the average number of cells per culture. Cell resuspensions were diluted and plated on solid SC-UH medium, and colony counts were determined after incubation at 30° C. for 2-3 days. Alternatively, cell resuspensions were diluted and subject to an event-count measurement via flow cytometry. Fourth, inoculums of highly error-prone TP-DNAP 1 s occasionally contained pre-existing mutants, despite the 1:10,000 dilution, so mutant frequencies were estimated by plating pre-cultures on solid SC-UHLW, pH 5.8 medium. Plates were incubated for 2-3 days, in parallel with cultures grown for fluctuation tests. Pre-culture mutant titers were counted to estimate the number of replicates in the fluctuation test expected to contain pre-existing mutants (n). Revertants were counted from all replicates of the fluctuation tests, counts were sorted, and n replicates with the highest counts were omitted from calculations.
To calculate per-base substitution rates, fluctuation data were analyzed by the maximum likelihood method, implemented using newton.LD.plating in rSalvador 1.7 (Zheng, 2017). Phenotypic mutation rates were calculated by normalizing to the average number of cells per culture. Phenotypic mutation rates were divided by the measured p1 copy number and by the number of ways leu2 (Q180*) can revert to LEU2 (2.33 for the ochre codon) to yield per-base substitution rates. 95% confidence intervals were similarly scaled by these factors. All data related to large-scale p1 fluctuation tests are fully described in Table 2.

Molecule	Mutation rate (s.p.b.)
B1	2.79 × 10^−9 s.p.b.
B2	3.04 × 10^−8 s.p.b.
B3	1.81 × 10^−8 s.p.b.
B4	4.99 × 10^−9 s.p.b.
B5	2.63 × 10^−7 s.p.b.
B6	9.19 × 10^−9 s.p.b.
B7	5.70 × 10^−8 s.p.b.
B8	9.28 × 10^−8 s.p.b.

tested on: p1; test: p1 copy number by p1-encoded mKate2 fluorescence; format: cell-based, S. cerevisiae; conditions: OR-Y24, measured in triplicate
Outline: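 Read-out is mKate2 fluorescence of saturated OR-Y24 cultures, measured by flow cytometry or by plate reader with OD600 normalization. Flow values were converted by a qPCR-derived linear calibration; plate values were scaled to a w.t. TP-DNAP1 control.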

Molecule	Mean fold-increase over w.t. (p1 copy number)
B9	2.55 fold
B10	2.39 fold
B11	3.95 fold
B12	2.26 fold
B13	2.2 fold
B14	2.87 fold
B15	2.28 fold
B16	2.71 fold
B17	1.41 fold
B18	2.57 fold
B19	2.57 fold
B20	2.16 fold
B21	1.91 fold
B22	1.95 fold
B23	2.19 fold
B24	2.57 fold
B25	2.53 fold
B26	2.25 fold
B27	1.57 fold
B28	2.02 fold
B29	2.34 fold
B30	2.37 fold
B31	2.53 fold
